Columns and labels:
Test in all cases: ELISA: 500 ng peptide coated per well, 29E4 at 40 ng/mL, HRP goat anti-rabbit Ig 1:16,000, ABS 450 nm, duplicates [CONT. 2]
[1] = molecular target: T1, P5 (alanine substituted, FIG. 3 panel E)
T1 construct: not the overlapping peptide P5 of panel A; also called M215 to alanine
Text: (§1) HRP Goat anti-rabbit Ig was applied at 1:16,000 dilution in all reactions.
(§2) Peptides were synthesized to achieve ≥70% HPLC purity by a commercial vendor (GenScript Biotech, Piscataway, NJ). Peptides were reconstituted in either water, or with addition of acetonitrile, methanol, 10% acetic acid, or DMSO, depending on the overall charge of each peptide. Key residues required for mAb binding were probed by ELISA using overlapping peptides, truncated peptides and alanine substituted peptides. Reactions were performed in duplicate using NUNC 96-well flatbottom MaxiSorp plates (Thermo Scientific). After coating each well with 500 ng of peptide in 100 μL coating buffer (50 mM NaHCO₃, pH 9.6), the plates were sealed and incubated at 4° C. overnight. […] Plates were then washed once with wash buffer, incubated with 100 μL mAb 29E4 (serially diluted from 1 mg/mL) for 1 hour at 37° C. Plates were further washed four times with wash buffer, and then incubated at 37° C. with 100 μL of a horse radish peroxidase (HRP)-conjugated secondary antibody against the primary antibody, diluted 1:16,000 according to manufacturer's protocols (KPL, Inc., Gaithersburg, MD). After washing four times with wash buffer, 100 μL of K-Blue Aqueous TMB substrate (Neogen, Lexington, KY) was added to the plates and incubated uncovered for 30 minutes at room temperature. To stop the reaction, 100 μL of 2 N Sulphuric acid was added to each well and absorbance were measured immediately at 450 nm. All dilutions of reagents were performed in ELISA diluent (20% NGS in 1×PBS with 0.1% Triton-X 100).

[2] = molecular target: T2, P20 (alanine substituted, FIG. 3 panel E)
T2 construct: also called E230 to alanine
T2 sequence (peptide, as listed by the source): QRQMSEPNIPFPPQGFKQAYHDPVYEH
Text: as §1, §2

[3] = molecular target: T3, P22 (alanine substituted, FIG. 3 panel E)
T3 construct: also called H232 to alanine
T3 sequence (peptide, as listed by the source): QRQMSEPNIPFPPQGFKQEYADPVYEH
Text: as §1, §2

[4] = molecular target: T4, P11 (alanine substituted, FIG. 3 panel E)
T4 construct: also called P221 to alanine
T4 sequence (peptide, as listed by the source): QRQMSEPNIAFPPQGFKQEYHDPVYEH
Text: as §1, §2

[5] = molecular target: T5, alanine substituted peptide with P223 replaced by alanine (P13 of FIG. 3 panel E) (human)
T5 construct: The text names only the residue P223
T5 sequence (peptide, as listed by the source): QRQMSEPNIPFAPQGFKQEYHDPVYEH
Text: as §1, §2

[6] = molecular target: T6, P24 (alanine substituted, FIG. 3 panel E)
T6 construct: also called P234 to alanine
T6 sequence (peptide, as listed by the source): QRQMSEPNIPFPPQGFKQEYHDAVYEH
Text: as §1, §2

[7] = molecular target: T7, P4 (alanine substituted, FIG. 3 panel E)
T7 construct: not the overlapping peptide P4 of panel A; also called Q214 to alanine
T7 sequence (peptide, as listed by the source): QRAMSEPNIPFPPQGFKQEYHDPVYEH
Text: as §1, §2

[8] = molecular target: T8, P7 (alanine substituted, FIG. 3 panel E)
T8 construct: not the overlapping peptide P7 of panels A and C; also called E217 to alanine
T8 sequence (peptide, as listed by the source): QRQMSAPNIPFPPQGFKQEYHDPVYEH
Text: as §1, §2

[9] = molecular target: T9, P10 (alanine substituted, FIG. 3 panel E)
T9 construct: also called I220 to alanine
T9 sequence (peptide, as listed by the source): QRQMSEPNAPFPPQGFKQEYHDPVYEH
Text: as §1, §2

[10] = molecular target: T10, alanine substituted peptide P12 (F222 to alanine) (human)
T10 construct: The entry already carries the substitution
T10 sequence (peptide, as listed by the source): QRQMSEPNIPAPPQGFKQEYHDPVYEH
Text: as §1, §2

[11] = molecular target: T11, P9 (alanine substituted, FIG. 3 panel E)
T11 construct: also called N219 to alanine
T11 sequence (peptide, as listed by the source): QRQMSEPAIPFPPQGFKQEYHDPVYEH
Text: as §1, §2

T1 sequence (peptide, as listed by the source): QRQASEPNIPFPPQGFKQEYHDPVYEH

binding result [1]: binds | binding result [2]: binds | binding result [3]: binds | binding result [4]: binds | binding result [5]: binds | binding result [6]: binds | binding result [7]: binds | binding result [8]: binds | binding result [9]: binds | binding result [10]: no binding (tested: 40 ng/mL) | binding result [11]: binds
B1: ETV1 rabbit monoclonal antibody (29E4) (antibody, V domains shown)
VH: QELEESGGDLVKPGASLTLTCTASGFFFSAENHICWVRQAPGKGLEWIGCVYIGSYVGGSGDPYYASWAKGRFTISKTSSTTVTLQMSSLTAADTATYFCARDLGSLWGPGTLVTVSS
VL: DVVMTQTASSVSAAVGGTVTIACQSSQSVYDNNNLAWFQQKPGQPPKRLIYSASTLASGVSSRFKGSGYGTQFTLTISDVQCDDAATYYCVGAFSGYIFVFGGGTEVVVK
notes: constant regions are not; also called 29E4 mAb; ETV1 29E4 mAb

Reference: patent publication US20260227403A1 (HENRY M JACKSON FOUNDATION FOR THE ADVANCEMENT OF MILITARY …, published 2026)
